Assay results taken from patent US20240026019A1 (Innovent, published 2024).

T1: cynomolgus monkey TNFR2 overexpressed on CHO-S cells (CHOS-cTNFR2) (cynomolgus monkey, UniProt P20333 23-461 (human entry))
T1 construct: also called cTNFR2 CHO-S
T1 chain: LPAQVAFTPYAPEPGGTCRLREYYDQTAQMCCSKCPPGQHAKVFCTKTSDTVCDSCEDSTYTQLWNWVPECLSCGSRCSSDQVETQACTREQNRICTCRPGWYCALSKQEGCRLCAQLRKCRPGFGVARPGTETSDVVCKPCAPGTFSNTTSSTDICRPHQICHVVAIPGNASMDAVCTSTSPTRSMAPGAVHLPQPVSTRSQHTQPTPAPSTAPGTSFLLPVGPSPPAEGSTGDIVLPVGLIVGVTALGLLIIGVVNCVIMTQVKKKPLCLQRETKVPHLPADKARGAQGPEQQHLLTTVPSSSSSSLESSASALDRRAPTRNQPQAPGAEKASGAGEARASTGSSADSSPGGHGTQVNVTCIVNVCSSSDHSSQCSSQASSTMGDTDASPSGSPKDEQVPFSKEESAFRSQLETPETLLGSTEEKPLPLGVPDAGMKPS

T2: human TNFR2 overexpressed on CHO-S cells (CHOS-hTNFR2) (human, UniProt P20333 23-461)
T2 construct: also called hTNFR2 CHO-S; human TNFR2 molecule overexpressed on CHO-S cells
T2 sequence: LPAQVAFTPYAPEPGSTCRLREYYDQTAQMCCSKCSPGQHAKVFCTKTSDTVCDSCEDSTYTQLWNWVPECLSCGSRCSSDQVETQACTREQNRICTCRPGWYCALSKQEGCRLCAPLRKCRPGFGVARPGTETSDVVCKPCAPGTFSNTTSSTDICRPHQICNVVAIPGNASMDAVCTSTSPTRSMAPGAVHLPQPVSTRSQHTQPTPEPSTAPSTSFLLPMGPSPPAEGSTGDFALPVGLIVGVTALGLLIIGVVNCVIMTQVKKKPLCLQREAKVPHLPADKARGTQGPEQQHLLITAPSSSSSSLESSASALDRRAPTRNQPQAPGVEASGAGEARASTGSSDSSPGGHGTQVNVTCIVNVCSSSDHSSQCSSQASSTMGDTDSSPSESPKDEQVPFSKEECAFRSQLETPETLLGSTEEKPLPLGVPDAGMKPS

T3: rh-TNFR2-His (recombinant human TNFR2, His tag) (human, UniProt P20333 23-257)
T3 construct: Soluble antigen of the ForteBio assay; not shown: His tag
T3 sequence (looked up): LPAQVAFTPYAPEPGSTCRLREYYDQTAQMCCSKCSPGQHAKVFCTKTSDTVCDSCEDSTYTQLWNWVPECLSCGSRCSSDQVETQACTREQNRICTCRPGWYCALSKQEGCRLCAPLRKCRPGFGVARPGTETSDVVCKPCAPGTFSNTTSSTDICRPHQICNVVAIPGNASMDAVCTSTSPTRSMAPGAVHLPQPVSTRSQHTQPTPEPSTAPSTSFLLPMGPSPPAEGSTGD

T4: CYNO-TNFR2-His (cynomolgus monkey TNFR2, His tag) (cynomolgus monkey, UniProt A0A2K5VET2 132-366)
T4 construct: Soluble antigen of the ForteBio assay; also called cTNFR2; not shown: His tag
T4 sequence: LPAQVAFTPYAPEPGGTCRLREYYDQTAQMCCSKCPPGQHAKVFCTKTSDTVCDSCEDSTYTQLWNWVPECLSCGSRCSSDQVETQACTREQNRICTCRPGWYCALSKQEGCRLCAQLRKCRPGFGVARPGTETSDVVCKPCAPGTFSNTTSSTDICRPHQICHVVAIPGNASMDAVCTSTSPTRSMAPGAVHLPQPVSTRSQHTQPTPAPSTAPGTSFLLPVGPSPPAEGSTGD


How the values were obtained:
[1] = biological target: T1, cynomolgus monkey TNFR2 overexpressed …; assay: flow cytometry on CHO-S cells overexpressing cynomolgus monkey TNFR2 (hybridoma antibodies), MFI
Description: (§1) In the study, the binding of the hybridoma antibodies (3C4, 69B1, and 72G8) of the present invention, after being diluted in a gradient, to a stable CHO-S cell strain overexpressing human TNFR2 on the surface was assayed by using a flow cytometer.
(§2) CHOS-hTNFR2 cells or CHOS-cTNFR2 cells were counted and diluted to 2×10⁶ cells/mL, and added to a U-bottom 96-well plate at 100 μL/well. The mixture was centrifuged at 300 g for 5 min, and the cell medium was removed. The dilutions of the samples (the hybridoma antibodies 3C4, 69B1, and 72G8 and the positive control antibody OPI) (the antibodies were subjected to a two-fold serial dilution in PBS from the maximum antibody concentration of 300 nM) were added to the U-plate, and the cells were resuspended at 100 μL/well and left to stand on ice for 30 min. The suspension was centrifuged at 400 g for 5 min, and the supernatant was removed. The cells were washed twice with PBS. The mixture was centrifuged at 300 g for 5 min, and PBS was removed. […] The mixture was centrifuged at 400 g for 5 min, and the supernatant was removed. The cells were washed 3 times with PBS. The cells were resuspended in 200 μL of 1×PBS and assayed by FACS.

[2] = biological target: T2, human TNFR2 overexpressed on CHO-S …; assay: flow cytometry on CHO-S cells overexpressing human TNFR2 (hybridoma antibodies), MFI
Description: as §1, §2

[3] = biological target: T2, human TNFR2 overexpressed on CHO-S …; assay: flow cytometry on CHO-S cells overexpressing human TNFR2 (chimeric antibodies), MFI-FL2-A; unit taken from the axis Conc log(nM); the curve is still rising to about 29000 at log(nM) 2.5
Description: (§3) In the study, the binding of the chimeric antibodies of the present invention, after being diluted in a gradient, to a stable CHO-S cell strain overexpressing human TNFR2 on the surface was assayed by using a flow cytometer. cDNAs encoding human TNFR2 (SEQ ID NO: 60) and cynomolgus monkey TNFR2 (SEQ ID NO: 61) were cloned into pCH01.0 vectors (Invitrogen), which were transfected into CHO-S cells (Invitrogen) to produce CHO-S cells overexpressing human TNFR2 (CHOS-hTNFR2) and CHO-S cells overexpressing cynomolgus monkey TNFR2 (CHOS-cTNFR2).
(§4) CHOS-hTNFR2 cells or CHOS-cTNFR2 cells were counted and diluted to 2×10⁶ cells/mL, and added to a U-bottom 96-well plate at 100 μL/well. The mixture was centrifuged at 300 g for 5 min, and the cell medium was removed. The dilutions of the samples (the chimeric antibodies 3C4, 69B1, and 72G8 and the positive control antibody OPI) (the antibodies were subjected to a three-fold serial dilution in PBS from the maximum antibody concentration of 300 nM) were added to the U-plate, and the cells were resuspended at 100 μL/well and left to stand on ice for 30 min. The suspension was centrifuged at 400 g for 5 min, and the supernatant was removed. The cells were washed twice with PBS. The mixture was centrifuged at 300 g for 5 min, and PBS was removed. […]

[4] = biological target: T3, rh-TNFR2-His (recombinant human TNFR2, …); assay: BLI (ForteBio), antibody on sensor, 100 nM rh-TNFR2-His in solution, 1:1 model
Description: (§5) In the present invention, the equilibrium dissociation constant (KD) for the binding of the 3 exemplary chimeric antibodies of the present invention described above to human TNFR2 (hTNFR2), cynomolgus monkey TNFR2 (cTNFR2), murine TNFR2(mTNFR2), and human TNFR1(hTNFR1) was determined by biological optical interferometry (ForteBio). For comparison, the equilibrium dissociation constant (KD) of a positive control antibody OPI (humanized antibody SBT-002e in WO 2017083525, VH sequence of SEQ ID NO: 58, VL sequence of SEQ ID NO: 59) was determined.
(§6) The ForteBio affinity assay was performed according to the prior art (Estep, P, et al., High throughput solution based measurement of antibody-antigen affinity and epitope binning. MAbs, 2013.5(2): p. 270-278). Briefly, a sensor was equilibrated offline in an assay buffer for 30 min, and was equilibrated online for 60 s to establish a baseline. The purified antibodies obtained as described above were loaded online onto an AHQ sensor (ForteBio) for the ForteBio affinity assay. The sensor with the loaded antibodies was then exposed to each of 100 nM hTNFR2, cTNFR2, mTNFR2, and hTNFR1 antigens for 5 min before transferring the sensor to an assay buffer for 5 min of dissociation for dissociation rate measurement. The kinetic analysis was performed using a 1:1 binding model.

[5] = biological target: T4, CYNO-TNFR2-His (cynomolgus monkey …); assay: BLI (ForteBio), antibody on sensor, 100 nM CYNO-TNFR2-His in solution, 1:1 model
Description: as §5, §6

[6] = biological target: T1, cynomolgus monkey TNFR2 overexpressed …; assay: flow cytometry on CHO-S cells overexpressing cynomolgus monkey TNFR2 (chimeric antibodies), MFI-FL2-A; unit taken from the axis Conc log(nM); the curve is still rising at log(nM) 2.5, no upper plateau
Description: as §3, §4

Row | EC50 (read off the curve) [1] [nM] | EC50 (read off the curve) [2] [nM] | EC50 [3] [nM] | Kd [4] [nM] | koff [4] [s⁻¹] | kon [4] [M⁻¹ s⁻¹] | Kd [5] [nM] | koff [5] [s⁻¹] | kon [5] [M⁻¹ s⁻¹] | EC50 [6] [nM] | Binder
1 | ~1 | ~1 |  |  |  |  |  |  |  |  | hybridoma antibody 69B1 (antibody, V domains shown, Murine antibody from the hybridoma (detected with anti-mouse IgG)) VH: QIQLVQSGPELKKPGETVKISCKASGYTFTDYSMNWVKQAPGKGLKWMGWLNTETGEPIYADDFKGRFVFSLETSASTAYLEINNLNDEDTATYFCAREAIYYGTSYVLDYWGQGTSVTVSS VL: DIVLTQSPASLAVSLGQRATISCRASESVEYYGTNFMQWYQQKPGQPPKLLIYSASNVESGVPARFSGSGSGTDFSLNIHPVEEDDIAVYFCQQSRKDPSTFGEGTNLEIK
2 |  |  | 28.4 | 4.51 | 0.00515 | 1.14e+06 | 3.11 | 0.00509 | 1.64e+06 | 122 | chimeric antibody 72G8 (antibody, human IgG1, kappa, V domains shown) VH: EVQLQQSGAELARPGASVMLSCKASGYTFTSYWMQWLKQRPGQGLEWIGAIYPGDGDTRYTQKFKGKATLTADKSSSTAYMQLSSLASEDSAVYYCVRDDGLYYAMDYWGQGTSVTVSS VL: QIVLTQSPTIMSASLGERVTMTCTASSSVSSSYLHWYQQKPGSSPKLWIYSTSNLASGVPARFSGSGSGTSYSLTISSMEAEDAATYYCHQYHRSPPTFGGGTKLEIKR
